Results as given in the supplement of paper PMC10567573.

B1: YPEL3 (parent)
chain: SKPKTFQAYLDDCHRRYSCAHCRA

Variants of: B1
Test: protein stability index of a GFP-peptide fusion (GPS, HEK-293T) (PSI 1-6); higher = more stable
Details: c terminus: a fixed tail appended
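Note: lentivirally expressed fusions sorted by FACS into six bins by GFP to DsRed ratio, PSI derived from sequencing read proportions per bin multiplied by bin number.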

Row | Variant | protein stability index
1 | SAPKTFQAYLDDCHRRYSCAHCRA | 2.18
2 | SKPKTFQAYLPDCHRRYSCAHCRA | 2.54
3 | SKPKTFQAYLDDCHRRYSCAHTRA | 2.73
4 | SKPKTFQAYLDDCHRRYSCAHCHA | 2.59
5 | SKPKTFQAYLVDCHRRYSCAHCRA | 1.75
6 | FKPKTFQAYLDDCHRRYSCAHCRA | 1.67
7 | SKPKTFQAYLDDCHRRYSDAHCRA | 3.27
8 | SKLKTFQAYLDDCHRRYSCAHCRA | 2.13
9 | SKPKTFQAYLDDCHRDYSCAHCRA | 2.45
10 | SNPKTFQAYLDDCHRRYSCAHCRA | 2.34
11 | SKIKTFQAYLDDCHRRYSCAHCRA | 2.19
12 | SKPKTFQAYTDDCHRRYSCAHCRA | 2.14
13 | MKPKTFQAYLDDCHRRYSCAHCRA | 2
14 | SKPKTFQAYLDDCHRRYSCDHCRA | 1.1
15 | SKPCTFQAYLDDCHRRYSCAHCRA | 1.86
16 | SKPKTFQAYLDDCHRRYSCHHCRA | 2.04
17 | SKPKTFQAYMDDCHRRYSCAHCRA | 1.75
18 | SKPKEFQAYLDDCHRRYSCAHCRA | 3.37
19 | SKPKTFQAYLDDCHIRYSCAHCRA | 2.25
20 | SKPKTFQAYSDDCHRRYSCAHCRA | 2.8
21 | SKPKTFQAYLDDCTRRYSCAHCRA | 1.8
22 | SKPKTFQAYLDDCHRAYSCAHCRA | 1.76
23 | SKPKTFQAYLRDCHRRYSCAHCRA | 1.9
24 | SKPKTFQAYLDDEHRRYSCAHCRA | 1.78

Row | Variant | protein stability index
25 | SKPHTFQAYLDDCHRRYSCAHCRA | 2.59
26 | SKPKTFQAYLDDPHRRYSCAHCRA | 1.68
27 | SKPKTFQAYLDDCRRRYSCAHCRA | 1.73
28 | SHPKTFQAYLDDCHRRYSCAHCRA | 2
29 | SKPKTFQAYLDDCHRRYSCAHCRH | 1.85
30 | SKPKYFQAYLDDCHRRYSCAHCRA | 1.97
31 | SKPKTFQAYLDDCHRRYSCVHCRA | 2.02
32 | SPPKTFQAYLDDCHRRYSCAHCRA | 1.95
33 | SKPKHFQAYLDDCHRRYSCAHCRA | 2.57
34 | SKPKTFQAWLDDCHRRYSCAHCRA | 1.93
35 | IKPKTFQAYLDDCHRRYSCAHCRA | 2.81
36 | SKPKTFQAYLDDDHRRYSCAHCRA | 1.99
37 | SKPKTFQAYLDDCHRRYSCAHHRA | 1.82
38 | SKPFTFQAYLDDCHRRYSCAHCRA | 1.72
39 | SKPKTFQAYLDDCHRRYSCAHARA | 2.04
40 | SKPKTCQAYLDDCHRRYSCAHCRA | 2.84
41 | SKPKTFQLYLDDCHRRYSCAHCRA | 2.4
42 | SKPKTFIAYLDDCHRRYSCAHCRA | 1.4
43 | SKPKTPQAYLDDCHRRYSCAHCRA | 2.96
44 | SKPKTMQAYLDDCHRRYSCAHCRA | 2.94
45 | SKPKTGQAYLDDCHRRYSCAHCRA | 3.57
46 | SKPKTFQAYLDDCHRRFSCAHCRA | 3.01
47 | SKPKTFQAYLDDCHRRYSCAYCRA | 1.48
48 | SKPKTFQAYLDDCHRRYGCAHCRA | 2.5

Row | Variant | protein stability index
49 | SKPKTFQAYLDDFHRRYSCAHCRA | 2.1
50 | SKPKTFQAYLWDCHRRYSCAHCRA | 1.5
51 | SKPKTFQAYLDDCHRRYSCAHFRA | 2.32
52 | SKPKGFQAYLDDCHRRYSCAHCRA | 2.11
53 | SKPKTFQAFLDDCHRRYSCAHCRA | 2.67
54 | SKPKTFQAKLDDCHRRYSCAHCRA | 1.93
55 | SKPKTFQAYLDDWHRRYSCAHCRA | 1.71
56 | SKPKTFSAYLDDCHRRYSCAHCRA | 1.89
57 | SKPKTFQAYLDDCHRRYSCANCRA | 1.57
58 | SKPKTFQAYLDDCHRRYSCAICRA | 2.52
59 | SKPKTFQAYLDDCHRRYSCAMCRA | 1.18
60 | SKPKTFQAYLDDCHRIYSCAHCRA | 1.55
61 | DKPKTFQAYLDDCHRRYSCAHCRA | 2.21
62 | SKPKTFQAYLDDCHRRYSCAHQRA | 3.22
63 | SKPKTFQAPLDDCHRRYSCAHCRA | 3.08
64 | SKPKTFQAYLDDCHRRYSCAKCRA | 2.37
65 | SKPKFFQAYLDDCHRRYSCAHCRA | 1.84
66 | SKPKTVQAYLDDCHRRYSCAHCRA | 2.81
67 | SKPKTFQAYLDDCHRRGSCAHCRA | 2.02
68 | SKPKTFQAYYDDCHRRYSCAHCRA | 1.97
69 | SKPKTIQAYLDDCHRRYSCAHCRA | 2.17
70 | SKPKTFQAYLDDCHRRYSIAHCRA | 2.33
71 | SKPKTFQAYLDDCHRRYSCAHCSA | 3.52
72 | SKPKTFQAYLDDCHRRYSCWHCRA | 3.14

Row | Variant | protein stability index
73 | SKPKTFQAYLDDCHRRYSCAHDRA | 2.94
74 | SKPKTFQVYLDDCHRRYSCAHCRA | 2.23
75 | SSPKTFQAYLDDCHRRYSCAHCRA | 1.8
76 | SKPKMFQAYLDDCHRRYSCAHCRA | 2.56
77 | SKPKTFVAYLDDCHRRYSCAHCRA | 2.18
78 | SKPKTFQAYLDDCHRRCSCAHCRA | 3.26
79 | SKPKTFAAYLDDCHRRYSCAHCRA | 2.39
80 | SKPKTFQAYLDDCHRRYSCAHRRA | 2.63
81 | SKPKTFQAYKDDCHRRYSCAHCRA | 2.94
82 | SKPKTFQAYLDDCHRRYSCPHCRA | 1.92
83 | SKPKTFQAQLDDCHRRYSCAHCRA | 2.45
84 | SKPKTKQAYLDDCHRRYSCAHCRA | 3.23
85 | SKPKTFQAYLDDCHRRYSCAHCRM | 2.07
86 | SKPKTFQAYLDDCHRRYECAHCRA | 1.52
87 | SKPKTFQAYLDDCHRRYSCAHLRA | 2.37
88 | SYPKTFQAYLDDCHRRYSCAHCRA | 1.85
89 | SGPKTFQAYLDDCHRRYSCAHCRA | 2.34
90 | SKPKTFQAYLDDCHRRYSCAHCIA | 3.07
91 | SKPKTFQAYLDDCHRCYSCAHCRA | 2.4
92 | SKPKTFQADLDDCHRRYSCAHCRA | 2.38
93 | SKPKTFQAYLDDCHRRYQCAHCRA | 1.86
94 | SKPKTFQAYLDDCHRRYSCACCRA | 1.83
